Substrate in data set [1]: CC(=O)NCC(=O)N1CCCC1C(=O)Nc1ccc2c(C(F)(F)F)c(CC(N)=O)c(=O)oc2c1
Nature of the data set: Hydrolysis of C-terminal coumarin dipeptide substrates by DPP-4 (kinetic constants). Conditions: other: DPP-4, substrates with blocked N-termini, 23° C., pH 7.4, NC = no cleavage up to 1 mM substrate. It counts as biochemical. The procedure:
(§1) The relative cleavage rates by FAP and several dipeptidases of N-blocked (8) and unblocked (7) Gly-Pro dipeptide substrates were measured.
(§2) The cleavage (hydrolysis) rates of various C-terminal coumarin dipeptide substrates 7-16 by FAP and DPP-4 were measured (Tables 4 and 5). The amino-terminus of the substrates was unblocked and the amino acids were varied in Table 4. The amino-terminus of the substrates was blocked and the amino acids were varied in Table 5. To extend the results obtained with the dipeptide substrate library, kinetic parameters were determined for cleavage of the unblocked dipeptide substrates by FAP (Table 4). The catalytic efficiency (kcat/Km) for substrate cleavage was greatest with Ile-Pro-AFC, followed by Ala-Pro-, Gly-Pro- and Phe-Pro-AFC, consistent with the dipeptide substrate library results (FIG. 5). […] Kinetic constants for cleavage of Ala-Pro-AFC and Gly-Pro-AFC by DPP-4 were determined (Table 4). The catalytic efficiency for Ala-Pro-AFC hydrolysis was greater than that for Gly-Pro-AFC, and consistent with the dipeptide library.
(§3) Protease Assays—Protease activity was monitored continuously using a SpectraMax M2 microplate reader (Molecular Devices Corp., Sunnyvale Calif.) in the kinetic mode. Assays were conducted at 23° C. in 50 mM Tris (pH 7.4), 100 mM NaCl, 1 mM EDTA. The excitation/emission wavelengths for the different fluorogenic substrates were 360/460 nm (AMC), 400/505 nm (AFC), 340/425 nm (MNA), 340/510 nm (EDANS), and 337/425 nm (Abs). Standard curves of the appropriate fluorescent product versus concentration were used to convert relative fluorescence units to nmol of product produced. Substrates in the X-Pro-AMC library were used in rate assays at 5 μM final concentration. […] The kinetic parameters were calculated from Michaelis-Menten plots (V0 versus [S]) with nonlinear regression analysis using GraphPad software. kcat values were calculated under the assumption that each protease was 100% active.
(§4) When saturating amounts of substrate could not be achieved, catalytic efficiencies (kcat/Km) were determined under pseudo-first order conditions ([S]<<the estimated Km) and fit to the following equation: Ln[St/S0]=−kobst, where St is the concentration of substrate remaining at time t, S0 is the initial substrate concentration and kobs is the apparent first order substrate cleavage constant equal to (kcat/Km) times ET, the total enzyme concentration (Copeland, R. (2000) Enzymes, A Practical Introduction to Structure, Mechanism, and Data Analysis, 2nd Ed., John Wiley and Sons, Inc, New York). The linear relationship of Ln[St/S0] versus time allows calculation of kcat/Km by dividing the slope of the plot by ET.

Substrate in data set [2]: NCC(=O)N1CCCC1C(=O)Nc1ccc2c(C(F)(F)F)c(CC(N)=O)c(=O)oc2c1
Described as above. It is filed as biochemical. Particulars: other: DPP-4, substrates with unblocked N-termini, 23° C., pH 7.4. As to the method:
as §1, §2, §3, §4

Some results are limits rather than exact numbers.

B1: DPP-4 (Homo sapiens) (protein)
chain: SRKTYTLTDYLKNTYRLKLYSLRWISDHEYLYKQENNILVFNAEYGNSSVFLENSTFDEFGHSINDYSISPDGQFILLEYNYVKQWRHSYTASYDIYDLNKRQLITEERIPNNTQWVTWSPVGHKLAYVWNNDIYVKIEPNLPSYRITWTGKEDIIYNGITDWVYEEEVFSAYSALWWSPNGTFLAYAQFNDTEVPLIEYSFYSDESLQYPKTVRVPYPKAGAVNPTVKFFVVNTDSLSSVTNATSIQITAPASMLIGDHYLCDVTWATQERISLQWLRRIQNYSVMDICDYDESSGRWNCLVARQHIEMSTTGWVGRFRPSEPHFTLDGNSFYKIISNEEGYRHICYFQIDKKDCTFITKGTWEVIGIEALTSDYLYYISNEYKGMPGGRNLYKIQLSDYTKVTCLSCELNPERCQYYSVSFSKEAKYYQLRCSGPGLPLYTLHSSVNDKGLRVLEDNSALDKMLQNVQMPSKKLDFIILNETKFWYQMILPPHFDKSKKYPLLLDVYAGPCSQKADTVFRLNWATYLASTENIIVASFDGRGSGYQGDKIMHAINRRLGTFEVEDQIEAARQFSKMGFVDNKRIAIWGWSYGGYVTSMVLGSGSGVFKCGIAVAPVSRWEYYDSVYTERYMGLPTPEDNLDHYRNSTVMSRAENFKQVEYLLIHGTADDNVHFQQSAQISKALVDVGVDFQAMWYTDEDHGIASSTAHQHIYTHMSHFIKQCFSLP
notes: DPP-4 (amino acids 39-766); FLAG (N); made in house; host or cells: 293 cells (secreted, purified from serum-free conditioned media)
On to B1, for which, in data set [1], the catalytic constant (kcat) was less than 0.07 s⁻¹ and the kcat/Km worked out at 36 ± 3 M⁻¹ s⁻¹. Besides, in data set [2], the Km came to 76 ± 10 µM, the kcat came to 121 ± 5 s⁻¹ and the specificity constant (kcat/Km) worked out at 1.6e+06 M⁻¹ s⁻¹.

In general, kcat refers to the number of substrate molecules converted per active site and unit of time at saturation. As a reminder, the kcat/Km is the second-order rate constant that governs catalysis at low substrate concentration. Broadly, the Km is the substrate concentration at which the rate is half of its maximum.

Values taken from patent publication US7399869B2, “Fibroblast activation protein inhibitor compounds and methods” (Genentech, Inc., priority 2005, dated 2008).
